The text below walks through data of the RNAGym collection of RNA variant scans (doi:10.7554/elife.90254).

Sequences and labels used below:
B1: OR4K15 (parent)
chain: GUUAACGGUCAUAGGCCAUGGAAACUAGGAGCACCAUUUCGCUGCCAGUGAAGAAAUGAACAAAGAAAAUCUGGGCCAGGCAGGCAUCAAAAGAAAUAGUCUUGCGCUCAACCAGAAAGUCUGUAAUCAUUUUAAGGGUA

The data set covers variants of B1. As to the kind of experiment: self-cleavage, relative activity (ratio to wild type); higher = more cleavage; in vitro, sequencing; the parent is a self-cleaving ribozyme.
Regarding GUUAACGGUCAUAGGCCAUGGAAACUAGGAGCACCAUCUCGCUGCCAGUGAAGAAAUGAACAAAGAAAAUCUGGGCCAGGCAGGCAUCAAAUGAAAUAGUCUUGCGCUCAACCAGAAAGUCUGUAAUCAUUUUAAGGGUA [U38C A92U], the self-cleavage worked out at 1.63.
For GUUAACGGUCAUAGGCCAUGGAAACUAGGAGCACCAUCUCGCUGCCAGUGAAGAAAUGAACAAAGAAAAUCUGGGCCAGGCAGGCAUCAAAGGAAAUAGUCUUGCGCUCAACCAGAAAGUCUGUAAUCAUUUUAAGGGUA [U38C A92G] the value was 1.97; for GUUAACGGUCAUAGGCCAUGGAAACUAGGAGCACCAUCUCGCUGCCAGUGAAGAAAUGAACAAAGAAAAUCUGGGCCAGGCAGGCAUCAGAAGAAAUAGUCUUGCGCUCAACCAGAAAGUCUGUAAUCAUUUUAAGGGUA [U38C A90G], 1.4.
With GUUAACGGUCAUAGGCCAUGGAAACUAGGAGCACCAUCUCGCUGCCAGUGAAGAAAUGAACAAAGAAAAUCUGGGCCAGGCAGGCAUCACAAGAAAUAGUCUUGCGCUCAACCAGAAAGUCUGUAAUCAUUUUAAGGGUA [U38C A90C] the figure was 1.62; with GUUAACGGUCAUAGGCCAUGGAAACUAGGAGCACCAUCUCGCUGCCAGUGAAGAAAUGAACAAAGAAAAUCUGGGCCAGGCAGGCAUCAAAAGAAAUAGUCUUGCGCUCAACCAGAAAGUCUGUAGUCAUUUUAAGGGUA [U38C A126G], 1.56.
For GUUAACGGUCAUAGGCCAUGGAAACUAGGAGCACCAUCUCGCUGCCAGUGAAGAAAUGAACAAAGAAAAUCUGGGCCAGGCAGGCGUCAAAAGAAAUAGUCUUGCGCUCAACCAGAAAGUCUGUAAUCAUUUUAAGGGUA [U38C A86G] the value was 1.65; for GUUAACGGUCAUAGGCCAUGGAAACUAGGAGCACCAUCUCGCUGCCAGUGAAGAAAUGAACAAAGAAAAUCUGGGCCAGGCAGGCCUCAAAAGAAAUAGUCUUGCGCUCAACCAGAAAGUCUGUAAUCAUUUUAAGGGUA [U38C A86C], 1.31.
Take GUUAACGGUCAUAGGCCAUGGAAACUAGGAGCACCAUCUCGCUGCCAGUGAAGAAAUGAACAAAGAAAAUCUGGGCCAGGCAGGCAUCAAAAGAAAUUGUCUUGCGCUCAACCAGAAAGUCUGUAAUCAUUUUAAGGGUA [U38C A98U]: the self-cleavage came to 1.89.
For GUUAACGGUCAUAGGCCAUGGAAACUAGGAGCACCAUCUCGCUGCCAGUGAAGAAAUGAACAAAGAAAAUCUGGGCCAGGCAGGCAUCAAAAGAAAUGGUCUUGCGCUCAACCAGAAAGUCUGUAAUCAUUUUAAGGGUA [U38C A98G] the value was 0.96; for GUUAACGGUCAUAGGCCAUGGAAACUAGGAGCACCAUCUCGCUGCCAGUGAAGAAAUGAACAAAGAAGAUCUGGGCCAGGCAGGCAUCAAAAGAAAUAGUCUUGCGCUCAACCAGAAAGUCUGUAAUCAUUUUAAGGGUA [U38C A68G], 0.84; for GUUAACGGUCAUAGGCCAUGGAAACUAGGAGCACCAUCUCGCUGCCCGUGAAGAAAUGAACAAAGAAAAUCUGGGCCAGGCAGGCAUCAAAAGAAAUAGUCUUGCGCUCAACCAGAAAGUCUGUAAUCAUUUUAAGGGUA [U38C A47C], 1.99.
With GUUAACGGUCAUAGGCCAUGGAAACUAGGAGCACCAUCUCGCUGCCUGUGAAGAAAUGAACAAAGAAAAUCUGGGCCAGGCAGGCAUCAAAAGAAAUAGUCUUGCGCUCAACCAGAAAGUCUGUAAUCAUUUUAAGGGUA [U38C A47U] the figure was 0.77; with GUUAACGGUCAUAGGCCAUGGAAACUAGGAGCACCAUCUCGCUGCCGGUGAAGAAAUGAACAAAGAAAAUCUGGGCCAGGCAGGCAUCAAAAGAAAUAGUCUUGCGCUCAACCAGAAAGUCUGUAAUCAUUUUAAGGGUA [U38C A47G], 0.74; with GUUAACGGUCAUAGGCCAUGGAAACUAGGAGCACCAUCUCGCUGCCAGUGAAGAAAUGAACAAAGAUAAUCUGGGCCAGGCAGGCAUCAAAAGAAAUAGUCUUGCGCUCAACCAGAAAGUCUGUAAUCAUUUUAAGGGUA [U38C A67U], 2.33.
For GUUAACGGUCAUAGGCCAUGGAAACUAGGAGCACCAUCUCGCUGCCAGUGAAGAAAUGAACAAAGAGAAUCUGGGCCAGGCAGGCAUCAAAAGAAAUAGUCUUGCGCUCAACCAGAAAGUCUGUAAUCAUUUUAAGGGUA [U38C A67G] the value was 1.55.
Consider GUUAACGGUCAUAGGCCAUGGAAACUAGGAGCACCAUCUCGCUGCCAGUGAAGAAAUGAACAAGGAAAAUCUGGGCCAGGCAGGCAUCAAAAGAAAUAGUCUUGCGCUCAACCAGAAAGUCUGUAAUCAUUUUAAGGGUA [U38C A64G], for which the self-cleavage worked out at 1.45.
With GUUAACGGUCAUAGGCCAUGGAAACUAGGAGCACCAUAUCGCUGCCAGUGAAGAAAUGAACAAAGAAAAUCUGGGCCAGGCAGGCAUCAAAAGAAAUAGUCUUGCGCUCAACCAGAAAGUCUGUAAUCACUUUAAGGGUA [U38A U130C] the figure was 1.47; with GUUAACGGUCAUAGGCCAUGGAAACUAGGAGCACCAUCUCGCUGCCAGUGAAGAAAUGAACAAAGAAAAUCUGGGCCAGGCAGGCAUCAAAAGAGAUAGUCUUGCGCUCAACCAGAAAGUCUGUAAUCAUUUUAAGGGUA [U38C A95G], 1.58; with GUUAACGGUCAUAGGCCAUGGAAACUAGGAGCACCAUCUCGCUGCCAGUGAAGAAAUGAACAAAGAAAAUCUGGGCCAGGCAGGCAUCAAAAGAAAUAGUCUUGCGCUCAGCCAGAAAGUCUGUAAUCAUUUUAAGGGUA [U38C A111G], 0.02.
With GUUAACGGUCAUAGGCCAUGGAAACUAGGAGCACCAUCUCGCUGCCAGUGAGGAAAUGAACAAAGAAAAUCUGGGCCAGGCAGGCAUCAAAAGAAAUAGUCUUGCGCUCAACCAGAAAGUCUGUAAUCAUUUUAAGGGUA [U38C A52G] the figure was 1.53; with GUUAACGGUCAUAGGCCAUGGAAACUAGGAGCACCAUCUCGCUGCCAGUGACGAAAUGAACAAAGAAAAUCUGGGCCAGGCAGGCAUCAAAAGAAAUAGUCUUGCGCUCAACCAGAAAGUCUGUAAUCAUUUUAAGGGUA [U38C A52C], 0.68.
Regarding GUUAACGGUCAUAGGCCAUGGAAACUAGGAGCACCAUCUCGCUGCCAGUGAAGGAAUGAACAAAGAAAAUCUGGGCCAGGCAGGCAUCAAAAGAAAUAGUCUUGCGCUCAACCAGAAAGUCUGUAAUCAUUUUAAGGGUA [U38C A54G], the self-cleavage came out at 1.17.
For GUUAACGGUCAUAGGCCAUGGAAACUAGGAGCACCAUCUCGCUGCCAGUGAAGUAAUGAACAAAGAAAAUCUGGGCCAGGCAGGCAUCAAAAGAAAUAGUCUUGCGCUCAACCAGAAAGUCUGUAAUCAUUUUAAGGGUA [U38C A54U] the value was 2.56; for GUUAACGGUCAUAGGCCAUGGAAACUAGGAGCACCAUCUCGCUGCCAGUGAAGAAAUGAACAAAGAAAAUCUGGGCCAGGCAGGCAUCAAAAGAAAUAGUCUUGCGCUCAACCGGAAAGUCUGUAAUCAUUUUAAGGGUA [U38C A114G], 0.75; for GUUAACGGUCAUAGGCCAUGGAAACUAGGAGCACCAUAUCGCUGCCAGUGAAGAAAUGAACAAAGAAAAUCUGGGCCAGGCAGGCAUCAAAAGAAAUAGUCUUGCGCUCAACCAGAAAGUCUGUAAUCAUCUUAAGGGUA [U38A U131C], 1.16.
With GUUAACGGUCAUAGGCCAUGGAAACUAGGAGCACCAUCUCGCUGCCAGUGAAGAAAUGGACAAAGAAAAUCUGGGCCAGGCAGGCAUCAAAAGAAAUAGUCUUGCGCUCAACCAGAAAGUCUGUAAUCAUUUUAAGGGUA [U38C A59G] the figure was 0.61; with GUUAACGGUCAUAGGCCAUGGAAACUAGGAGCACCAUCUCGCUGCCAGUGAAGAAAUGAACAUAGAAAAUCUGGGCCAGGCAGGCAUCAAAAGAAAUAGUCUUGCGCUCAACCAGAAAGUCUGUAAUCAUUUUAAGGGUA [U38C A63U], 0.76; with GUUAACGGUCAUAGGCCAUGGAAACUAGGAGCACCAUCUCGCUGCCAGUGAAGAAAUGAACAAAGAAAAUCUGGGCCAGGCAGGCAUCUAAAGAAAUAGUCUUGCGCUCAACCAGAAAGUCUGUAAUCAUUUUAAGGGUA [U38C A89U], 2.15.
As for GUUAACGGUCAUAGGCCAUGGAAACUAGGAGCACCAUCUCGCUGCCAGUGAAGAAAUGAACAAAGAAAAUCUGGGCCAGGCAGGCAUCGAAAGAAAUAGUCUUGCGCUCAACCAGAAAGUCUGUAAUCAUUUUAAGGGUA [U38C A89G], the self-cleavage came out at 1.9.
With GUUAACGGUCAUAGGCCAUGGAAACUAGGAGCACCAUCUCGCUGCCAGUGAAGAAAUGAACAAAGAAAAUCUGGGCCAGGCAGGCAUCCAAAGAAAUAGUCUUGCGCUCAACCAGAAAGUCUGUAAUCAUUUUAAGGGUA [U38C A89C] the figure was 1.6.
For GUUAACGGUCAUAGGCCAUGGAAACUAGGAGCACCAUCUCGCUGCCAGUGAAGAAAUGAACAAAGAAAAUCUGGGCCAGGCAGGCAUCAAAAGAAUUAGUCUUGCGCUCAACCAGAAAGUCUGUAAUCAUUUUAAGGGUA [U38C A96U] the value was 1.66; for GUUAACGGUCAUAGGCCAUGGAAACUAGGAGCACCAUCUCGCUGCCAGUGAAGAAAUGAACAAAGAAAAUCUGGGCCGGGCAGGCAUCAAAAGAAAUAGUCUUGCGCUCAACCAGAAAGUCUGUAAUCAUUUUAAGGGUA [U38C A78G], 0.2; for GUUAACGGUCAUAGGCCAUGGAAACUAGGAGCACCAUCUCGCUGCCAGUGAAGAAAUGAACAAAGAAAAUCUGGGCCUGGCAGGCAUCAAAAGAAAUAGUCUUGCGCUCAACCAGAAAGUCUGUAAUCAUUUUAAGGGUA [U38C A78U], 0.35.
With GUUAACGGUCAUAGGCCAUGGAAACUAGGAGCACCAUCUCGCUGCCAGUGAAGAAAUGAACAAAGAAAAUCUGGGCCCGGCAGGCAUCAAAAGAAAUAGUCUUGCGCUCAACCAGAAAGUCUGUAAUCAUUUUAAGGGUA [U38C A78C] the figure was 0.46; with GUUAACGGUCAUAGGCCAUGGAAACUAGGAGCACCAUCUCGCUGCCAGUGAAGAAAUGAACAAAGAAAAUCUGGGCCAGGCAGGCAUCAAAAGAAAUAGUCUUGCGCUCGACCAGAAAGUCUGUAAUCAUUUUAAGGGUA [U38C A110G], 0.17; with GUUAACGGUCAUAGGCCAUGGAAACUAGGAGCACCAUCUCGCUGCCAGUGAAGAAAUGAACGAAGAAAAUCUGGGCCAGGCAGGCAUCAAAAGAAAUAGUCUUGCGCUCAACCAGAAAGUCUGUAAUCAUUUUAAGGGUA [U38C A62G], 1.37.
For GUUAACGGUCAUAGGCCAUGGAAACUAGGAGCACCAUCUCGCUGCCAGUGAAGAAAUGACCAAAGAAAAUCUGGGCCAGGCAGGCAUCAAAAGAAAUAGUCUUGCGCUCAACCAGAAAGUCUGUAAUCAUUUUAAGGGUA [U38C A60C], the self-cleavage was 2.1.
For GUUAACGGUCAUAGGCCAUGGAAACUAGGAGCACCAUCUCGCUGCCAGUGAAGAAAUGAACAAAGAAAAUCUGGGCCAGGCAGGCAUCAAAAGGAAUAGUCUUGCGCUCAACCAGAAAGUCUGUAAUCAUUUUAAGGGUA [U38C A94G] the value was 0.74; for GUUAACGGUCAUAGGCCAUGGAAACUAGGAGCACCAUCUCGCUGCCAGUGAAGAAAUGAACAAAGAAAAUCUGGGCCAGGCAGGCAUCAAAAGUAAUAGUCUUGCGCUCAACCAGAAAGUCUGUAAUCAUUUUAAGGGUA [U38C A94U], 2.15.
Regarding GUUAACGGUCAUAGGCCAUGGAAACUAGGAGCACCAUCUCGCUGCCAGUGAAGAAAUGAACAAAGAAAAUCUGGGCCAGGCAGGCAUCAAAAGAAAUAGUCUUGCGCUCAACCAGAAGGUCUGUAAUCAUUUUAAGGGUA [U38C A118G], the self-cleavage stood at 1.14.
For GUUAACGGUCAUAGGCCAUGGAAACUAGGAGCACCAUCUCGCUGCCAGUGAAGAAAUGAACAAAGAAAUUCUGGGCCAGGCAGGCAUCAAAAGAAAUAGUCUUGCGCUCAACCAGAAAGUCUGUAAUCAUUUUAAGGGUA [U38C A69U] the value was 0.9.
